The values below come from publication PMC314469, “Protein Interaction Networks by Proteome Peptide Scanning” (PLoS Biology, 2004).

T1: Myo5 SH3 (MYO5_YEAST), Q04439
T1 chain: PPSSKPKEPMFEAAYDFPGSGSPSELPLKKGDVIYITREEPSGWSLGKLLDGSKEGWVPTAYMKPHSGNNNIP

T2: Abp1 SH3 (ABP1_YEAST), P15891
T2 chain: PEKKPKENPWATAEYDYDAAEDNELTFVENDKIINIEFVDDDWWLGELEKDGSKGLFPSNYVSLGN

The target in the first test is T1, Myo5 SH3 (MYO5_YEAST), Q04439. The experiment in a line: SPOT array.
The molecule PLTTLPPPRLPSIQ [YCR033W 1026-1039] came in with a normalised SPOT signal, Boehringer light units (BLU); mean over the file's lines of this peptide of 2790.

Regarding QASMLRRPSLPHID [YKR077W 284-297], the normalised SPOT signal, Boehringer light units (BLU); mean over the file's lines of this peptide amounted to 1100. On the same count and under the same terms, the same measure for PPPPPPPPPVPA [YNL271C 1240-1251]: 95700; for QENPYIIPLPPSST [YBR212W 12-25]: 240. The same measure, in the same setting: the same measure for PAPPPPPPPPPPP [YNL271C 1278-1290]: 53300; for PPMAYNRPVYPPPQ [YOR197W 87-100]: 6720; for PPPPLPPPLFPSSS [YER033C 119-132]: 38500.

As to PEVKHFSPSTPIML [YKR055W 169-182], the normalised SPOT signal, Boehringer light units (BLU); mean over the file's lines of this peptide is 93.7. On the same count and under the same terms, the figure for PETRMDLPFSPEVN [YDR171W 234-247] is 130; for PEVHHHSPGVPSLV [YLR229C 99-112] it is 331; for PPEGFPEPLNPTNF [YIL005W 29-42] it is 86. QELRFLVPLVPLLV [YOR149C 314-327] yielded a normalised SPOT signal, Boehringer light units (BLU); mean over the file's lines of this peptide of 119. As to QFSGLLEPSLPNNM [YJL046W 318-331], the normalised SPOT signal, Boehringer light units (BLU); mean over the file's lines of this peptide was 84.4. On the same count and under the same terms, the same measure for PPPDFNDPTAPLSS [YGL014W 93-106]: 153; for PPPPMGQPKDPKFE [YKL129C 1112-1125]: 248. Same read-out and setting: the same measure for QELPMEVPKEPAPA [YLR399C 121-134]: 139; for NPQSLARPPPPKRI [YKL139W 28-41]: 248. Still for that read-out and setting: the same measure for QFQKLVPPTLPENV [YIL132C 50-63]: 154. In the case of NPFPFPIPEIPSTQ [YOR181W 270-283], the normalised SPOT signal, Boehringer light units (BLU); mean over the file's lines of this peptide was 86.5.

In turn, PLPTFSAPSLPQQS [YLR337C 659-672] came in with a normalised SPOT signal, Boehringer light units (BLU); mean over the file's lines of this peptide of 47000. Still for that read-out and setting: the figure for NPGSMSMPGVPTSM [YNL288W 26-39] is 190; for PEHLFNNPQNPMDF [YBR238C 623-636] it is 157.

PEVLMDQPYSPLSD [YAR018C 257-270] registered a normalised SPOT signal, Boehringer light units (BLU); mean over the file's lines of this peptide of 78.7. In turn, NLHGYGHPNPPNEK [YHR135C 370-383] displayed a normalised SPOT signal, Boehringer light units (BLU); mean over the file's lines of this peptide of 217. Molecule PFIDYEFPHLPNEL [YOR037W 215-228] showed a normalised SPOT signal, Boehringer light units (BLU); mean over the file's lines of this peptide of 98.9. On the same count and under the same terms, the figure for PFYTMPDPANPKYS [YLL018C 454-467] is 145. Same read-out and setting: the same measure for PLNQLPNPAMPLLH [YER169W 383-396]: 104.

Take PEDFLPPPPKPHFA [YLR285W 17-30]: the normalised SPOT signal, Boehringer light units (BLU); mean over the file's lines of this peptide stood at 126. On to PFSSMKEPFIPQSS [YBR172C 147-160], for which the normalised SPOT signal, Boehringer light units (BLU); mean over the file's lines of this peptide came to 411. Consider QEISLIDPSTPDKA [YGR083C 349-362], for which the normalised SPOT signal, Boehringer light units (BLU); mean over the file's lines of this peptide worked out at 155. On the same count and under the same terms, the figure for PLFGLSIPKTPTLK [YBL035C 102-115] is 122; for PEPTMGSPDAPPLV [YLR357W 573-586] it is 107. Same read-out and setting: the figure for PPQTHQSPPPPPQQ [YBR289W 73-86] is 222; for NLAPFTQPDFPFQT [YOR260W 14-27] it is 81.4; for NPLYWLLPSHPYTI [YGL160W 297-310] it is 165. In turn, PFGTFTLPADPEYK [YNL134C 307-320] registered a normalised SPOT signal, Boehringer light units (BLU); mean over the file's lines of this peptide of 172. On the same count and under the same terms, the same measure for PPLDFEQPRLPSTA [YAL017W 90-103]: 192; for PEGVFSIPAPPPNV [YGR094W 179-192]: 82.5. For the molecule PLAPLPPPPPPSVA [YLR337C 421-434], the normalised SPOT signal, Boehringer light units (BLU); mean over the file's lines of this peptide was 4750. The same measure, in the same setting: the figure for NLLSLENPVVPSHY [YIL137C 4-17] is 75.6; for PPKLLVYPESPETN [YBR279W 23-36] it is 91.3.

The target in the next test is T2, Abp1 SH3 (ABP1_YEAST), P15891. The experiment in a line: SPOT array.
For NIPPPPPPPPPKP [YMR089C 153-165], the normalised SPOT signal, Boehringer light units (BLU); mean over the file's lines of this peptide amounted to 38.2. On to NIEDITEPKPDKP [YDR363W 94-106], for which the normalised SPOT signal, Boehringer light units (BLU); mean over the file's lines of this peptide came to 75.1. On the same count and under the same terms, the figure for NIKVLLNPKLGKP [YLL007C 14-26] is 93.7.

NIKMASFLPVPEKP [YNL206C 122-135] registered a normalised SPOT signal, Boehringer light units (BLU); mean over the file's lines of this peptide of 387. Same read-out and setting: the same measure for NHASENTPRDGKP [YLR356W 137-149]: 97; for NHTIWVGPGKDKP [YHR015W 379-391]: 285; for NFEVSHKPTVEKP [YPL095C 323-335]: 185. Same read-out and setting: the figure for NHAINRIPIKLRP [YGL156W 1061-1073] is 3450; for NHGFLLPPENIKP [YHR132C 397-409] it is 6.9; for NIETHENERLPPRP [YAL023C 524-537] it is 117.

The molecule NGEEAEEVVVPEKP [YJL214W 46-59] gave a normalised SPOT signal, Boehringer light units (BLU); mean over the file's lines of this peptide of 539. Molecule NIPKPHIPYFMKP [YBR286W 82-94] displayed a normalised SPOT signal, Boehringer light units (BLU); mean over the file's lines of this peptide of 1120.
